Test results as given in patent US20210155687A1 (published 2021).

Assays:
Human OSM [1] = target: T1, Human OSM (human); experiment: in vivo affinity estimated from FTIH PK/PD data (rounded restatement of the TMDD estimate)
T1 chain: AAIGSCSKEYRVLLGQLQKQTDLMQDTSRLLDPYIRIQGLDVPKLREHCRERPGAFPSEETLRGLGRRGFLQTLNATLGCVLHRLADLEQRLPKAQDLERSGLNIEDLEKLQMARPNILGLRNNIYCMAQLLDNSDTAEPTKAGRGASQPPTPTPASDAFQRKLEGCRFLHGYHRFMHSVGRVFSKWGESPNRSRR

Human OSM [2] = target: T1, Human OSM; experiment: in vivo affinity in serum, estimated with a TMDD model (one-compartment PK plus binding kinetics) from free and total OSM levels in the single ascending dose FTIH study

B1: mab 1 (antibody)
heavy: SYAMS
light: EVQLVESGGGLVQPGGSLRLSCAASGFTFSSYAMSWVRQAPGKGLEWVATISDGGSFTYYLDNVRGRFTISRDNAKNSLYLQMNSLRAEDTAVYYCARDVGHTTFWYFDVWGRGTLVTVSS
notes: Humanised anti-OSM antibody derived from murine 10G8; also called humanised mab 1 derived from 10G8; Mature H0 (IGHV3_23 CDRH1) heavy chain with Mature L1 light chain
Kd (Human OSM [1]): ~0.6 nM | Kd (Human OSM [2]): 0.568 nM
